Assay results taken from paper PMC6404586.

Key:
C3d (human) [1] = target: C3d (human) (UniProt P01024); experiment: SEC; CIP and C3d loaded separately or mixed in equimolar concentration onto a Superdex column; MW from a calibration curve
C3d (human) [2] = target: C3d (human) (UniProt P01024); experiment: SPR; BIAcore X100; C3d covalently immobilised on CM5 chip (250 response units); CIP 0.0390-5 μM flowed; PBS with 0.005% Tween 20; 22°C; 1:1 Langmuir model; apparent Kd
C3b (human) = C3b (human) (UniProt P01024); experiment: ELISA; 100 ng of C3, C3b or C3d coated; increasing concentrations of CIP; anti-CIP antibody; apparent Kd as reciprocal of fitted Ka
complement C3 (human) = experiment: as above
C3d (human) [3] = target: C3d (human) (UniProt P01024); experiment: as above

Chain of UniProt P01024 (P01024 1002-1303): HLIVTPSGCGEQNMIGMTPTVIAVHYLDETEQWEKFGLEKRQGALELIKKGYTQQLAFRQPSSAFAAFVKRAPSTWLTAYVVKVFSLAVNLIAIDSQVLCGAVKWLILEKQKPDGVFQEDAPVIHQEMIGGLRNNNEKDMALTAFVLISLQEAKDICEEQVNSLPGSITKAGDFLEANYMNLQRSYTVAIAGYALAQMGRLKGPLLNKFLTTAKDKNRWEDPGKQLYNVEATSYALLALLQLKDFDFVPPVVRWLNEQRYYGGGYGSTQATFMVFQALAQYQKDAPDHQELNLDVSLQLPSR

**Q.** For “complement interfering protein (CIP) (natural protein)”, which stoichiometry N (C3d (human) [1]) is on record?
**A.** 1

**Q.** What about the Kd (C3d (human) [2]) of the same substance?
**A.** 79 nM

**Q.** What about the koff (C3d (human) [2]) of the same substance?
**A.** 0.00085 s⁻¹

**Q.** And the kon (C3d (human) [2])?
**A.** 10800 M⁻¹ s⁻¹

**Q.** And the Kd (C3b (human))?
**A.** 82.4 nM

**Q.** What about the Kd (complement C3 (human)) of the same substance?
**A.** 84.8 nM

**Q.** What about the Kd (C3d (human) [3]) of the same substance?
**A.** 76 nM
